Data published in article PMC10434305.
Where two headings read alike, the source gives them in different places.

Tests used:
[1] = target: Skeletal α-actin, monomeric (G-actin) (UniProt P68135); experiment: SEC
[2] = target: Arp3 L117C, C408A, C189A, C307A (subunit of human Arp2/3 complex for the crosslinking assay) (human) (UniProt P61158); experiment: cross-linking
[3] = target: Arp3 L117C, C408A, C189A, C307A (subunit of human Arp2/3 complex for the crosslinking assay) (human) (UniProt P61158); experiment: cross-linking; remark: listed apart in the source
[4] = target: Arp3 L117C, C408A, C189A, C307A (subunit of human Arp2/3 complex for the crosslinking assay) (human) (UniProt P61158); experiment: cross-linking; remark: listed apart in the source

stoichiometry N (CapZ-CA:actin) [1]	crosslinked fraction at plateau [2]	crosslinked fraction at plateau [3]	crosslinked fraction at plateau [4]	Substance
1	–	–	–	CapZ-CA hybrid heterodimer (CapZα-CA, CapZβ-CA) (from UniProt P52907;Q91YD9;P47756) (complex)
–	14%	34%	34%	Arp2 L199C (subunit of human Arp2/3 complex for the crosslinking assay) (from UniProt P61160 1-394) (natural protein)
